The values below are quoted from earlier work in publication PMC3022542.

Like-named read-outs stand apart in the source and are kept apart here.

The target of data set [1] is importin α5 (Homo sapiens) (UniProt P52294). Briefly: isothermal titration calorimetry.
For data set [2] the target is unchanged. Briefly: isothermal titration calorimetry. The source holds these as a separate data set.

Sequence of UniProt P52294 (P52294 whole entry): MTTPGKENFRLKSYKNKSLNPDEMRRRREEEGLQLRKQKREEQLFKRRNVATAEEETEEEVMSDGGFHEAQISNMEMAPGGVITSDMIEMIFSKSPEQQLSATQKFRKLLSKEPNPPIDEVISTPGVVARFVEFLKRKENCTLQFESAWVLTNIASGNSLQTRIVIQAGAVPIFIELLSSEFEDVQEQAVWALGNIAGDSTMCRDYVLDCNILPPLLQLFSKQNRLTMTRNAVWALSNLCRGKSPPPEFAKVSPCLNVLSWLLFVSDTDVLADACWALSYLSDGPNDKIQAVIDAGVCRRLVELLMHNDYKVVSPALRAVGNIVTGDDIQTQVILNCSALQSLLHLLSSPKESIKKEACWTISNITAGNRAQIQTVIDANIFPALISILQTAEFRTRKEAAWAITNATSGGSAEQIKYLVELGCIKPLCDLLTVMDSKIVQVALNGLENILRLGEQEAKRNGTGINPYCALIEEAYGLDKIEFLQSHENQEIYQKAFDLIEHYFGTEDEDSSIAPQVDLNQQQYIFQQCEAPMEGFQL

Regarding “EBNA-1 NLS peptide NLS (from UniProt P03211)”, the Kd in data set [1] was 60 µM; in data set [2], 3 µM.
